Data set [1] addresses TaOGA53 (Trichoplax O-GlcNAcase) (Trichoplax adhaerens, UniProt A0A0D5X1V2).
Data set [2] deals with T1, TaOGT (Trichoplax O-GlcNAc transferase) (Trichoplax adhaerens, UniProt A0A0D5X2K0).
T1 construct: TaOGT, start identified by RACE, wild type, GST tag cleaved
As to the kind of experiment: fluorescence UDP-detection OGT assay, […] UDP-GlcNAc. The class given is biochemical.

Substrate in the data set “purified protein”: CC(=O)N[C@H]1[C@H](Oc2ccc3c(C)cc(=O)oc3c2)O[C@H](CO)[C@@H](O)[C@@H]1O
As to the kind of experiment: purified protein.

Substrate in data set [3]: CC(=O)N[C@H]1[C@@H](OP(=O)(O)OP(=O)(O)OC[C@H]2O[C@@H](n3ccc(=O)[nH]c3=O)[C@H](O)[C@@H]2O)O[C@H](CO)[C@@H](O)[C@@H]1O
The experiment in a line: steady-state kinetics (Km), fluorescence UDP-detection assay. The format is biochemical, Trichoplax adhaerens. As to the method:
steady-state kinetics (Km), fluorescence UDP-detection assay on TaOGT (Trichoplax O-GlcNAc transferase) | The Km for UDP-GlcNAc was measured in the presence of excess peptide substrate

Peptide text beside a SMILES is read from it. * marks the point of attachment. Propyl(3-UDP) = O=c1ccn([C@@H]2O[C@H](COP(=O)(O)OP(=O)(O)OCCC*)[C@@H](O)[C@H]2O)c(=O)[nH]1

This is an account of results in article PMC4424335 (The Journal of Biological Chemistry, 2015).

The term IC50 denotes the point on the concentration scale where inhibition reaches its midpoint. Higher therefore signals a need for much substance. Broadly, the Km is the concentration of substrate that gives half-maximal velocity.

On to `CCNC1=N[C@@H]2[C@@H](O)[C@H](O)[C@@H](CO)O[C@@H]2S1` [Thiamet G], for which the concentration for half-maximal inhibition (IC50) entry in data set [1] was “c, IC50 of Thiamet G and GlcNAcstatin C for TaOGA53”.
`CC(=O)N[C@H](C(=O)N[C@H](C(=O)N1CCC[C@H]1C(=O)N[C@H](C(=O)N[C@@H](COCCCOP(=O)(O)OP(=O)(O)OC[C@H]1O[C@@H](n2ccc(=O)[nH]c2=O)[C@H](O)[C@@H]1O)C(=O)N[C@H](C(=O)N[C@@H](C)C(N)=O)[C@@H](C)O)C(C)C)[C@@H](C)O)C(C)C` [Goblin 1] (Ac-VTPVS(Propyl(3-UDP))TA-NH2) yielded a half-maximal inhibitory concentration (IC50) in data set [2] of 27 µM.

B1: TaOGA53 (Trichoplax O-GlcNAcase) (Trichoplax adhaerens) (protein)
chain: MNHNFICGVIEGFYGLPWSFTDRLDLFERLKKWGLNTYIYGPKDDYKHRSAWRDLYTETEADLFRALIKNAIVNDVIFVYAISPGNDICYSNASDIAALKDKLDQVRSFGCEAFAVFFDDIYCTMSKKDKGNFASFADAHVYIANLIYEHLNRPAVFMFCPTEYCATRAVPSVENSPYLTVIGDKLHPDVKVLWTGPDVISPFISVDSILALQEILKRKPIIWDNIHANDYDHSRIFLGPYQDRPIELAKVLSGVITNPNCEYRMNYVPIRTFSLWCQSQDKDDVQYSAESALTCAVEEWVKEFSVPSQLNIDQENIAVTMKDGIAKKDMTVTTEHLLLLIDIFYLPHKYGRHSIHLINMARWLQVNSNMITSTKETDKATSPSVKMWFQVFNEFNSLCQGILLLYDYLTMCPNQAISRELNSYIINLKKIFHILSLHINSLGTEATKHSSDATDTVDSSDAVVYGGILGEVVKIIKEGSDGDLKSSQQQVTACAIEVSLKNSDANMGADIPTNATVIG
On to B1, for which, in “purified protein”, the Km worked out at 78 ± 5 µM.

B2: TaOGT (Trichoplax O-GlcNAc transferase) (Trichoplax adhaerens) (protein)
chain: MVDQTNGIAEIAHREYQQGNYERAEHLAMEWWRHEQDNVGVLLLLSSIHFQTRKLDKSAHFCNMAIKSNPALSEAYSNLGNVFKERNQLKEALENYRYALRLRPDFIDGYINLASALVAAQDLEGAVKAYATALQYNPNLYCVRNDLGNLLKALGRLEEAKACYLKAIETQPNFAVAWSNLGCVFNSQGEIWLAIHHFEKAVTLDNGFLDAYINLGNVLKEARIFDRASTAYLRALNLSPNNPTVLGNLACVYYEQGLMDLAVDTYKRAIELQPNFPDAYCNLANALKELGKVTEAEECYNTALSLCPTHADSLNNLANIKREKGQIGEASKLYRKALEIFPEFAAAHSNLASVLQQQGKLQEALAHYKEAIRINPSFADAYSNMGNTLKEMQDVQGAIQCYTRAIQINPNFADAHSNLASIHKDSGSIPEAIANYRTALKLKPDFPDAFCNLAHCYQIICDWADYELRMKRLVSIVQDQLEKGRLPSVHPHHTMLYPLDGHTRKAISNRHGNLCLDRTATIHKPPYKFTPNIILPNGKLKIGYVSSDFGNHPTSHLMQSIPKLHDRSRVEVYCYSLTADDGTSFRKEISRGSDHFVDLSQVQCHGDAADRINADGIHILLNMNGYTKGARNEIFALRPAPIQMMWLGYPGTSGAAFMDYIITDKITSPMEYADHYSEKLAFLPNSFFIGDHRHMFAHLSVRATDNGRDRVINLSEGSAPDLDMKDIIEAQLREALSKIDNTSSHINTSTNLISNGTLGSNAVIPNGGPIINGNGDSVPNGPGVNVPSGMVLTTRAQYGLPSKAIIYCNFNQLYKIDPKILETWVRILKRVPNSILWLLRFPAAGEAMLKNTILKMGLPADRVVFTNVAPKEEHVRRGQLADICLDTPMCNGHTTGMDVLWAGVPMITMPKETLASRVASSQLTSLGVSELIAKDLTEYEDVAVKYGSDITRLRKLQDKIWQLRHKSTLFNTKTYCQNLEELYVKVWDRYSQGLEPDHIIY
notes: TaOGT, start identified by RACE, wild type, GST tag cleaved
As for B2, the Michaelis constant (Km) in data set [3] amounted to 13 ± 2 µM.

B3: TaOGA54 (Trichoplax O-GlcNAcase) (Trichoplax adhaerens) (protein)
chain: MTSDKFLSGVVEGFYGKPWSFEQRKTLFSNMAKWGLNTYMYGPKDDEKHRAAWKQAYSKREGDSLRALIRAAEESGILFIYAISPGVDITYSSNRDMKFLKDKLDQIRNFGCNSFAIFFDDIDTVMCLQDQEEFESFAAAQVEVTNEIYKYLGMPANFLFCPTEYCAARADPNVKESKYLVTVGTGLHSDIHIMWTGPKVVSNKISVESILELQTVLRRKPVIWDNIHANDYEQGRLNLGPYDCRPAELMESLNGIFTNPNCEFELNYVPIRTFSLWCQSKRTRFNYDVEKALEQSIREWTEEFCIPRLPDGYLLEADTSDTNVNEYMDDEMQSDSRPISPANSMETDKDELTVKDIRLLVELFYLPQKHGKTANDLLAQAKWLKSNFRIAALSRKPNDTSEGSNLDEHNTDYIAAKEWDKRFSKFRSICQIIHQFGDRLMTCRNRVLLYEVYNYVADLCGILYHLISRIHSLANPEKLEKRSDSEQSSFRYGGFVGDIHRLIVSTDEYEESTLKNSDAYVIRPFMPSDEETLYDLCLKSCIENSNGDEIYKREPRIIGDRDLGAYIYLHPEYIYVLEDDRDKICGYLCGALDSKQFYERYESEWLTQIRDRHPQPENDIASWTPEEIVANSFYNFTPPTDVSVLYLSHLEARFDSSVPEKVIKRIIRFILEQLKAKGSYGASMLIDSWRTNLRRIFTSMGFVDLQEYSWMSEQKCMIAIKLM
With B3, the Km in the data set “purified protein” worked out at 2000 ± 100 µM.
